According to publication PMC3085011 (2011):

Molecular target: T1, CNA1 (Saccharomyces cerevisiae, UniProt P23287)
T1 chain: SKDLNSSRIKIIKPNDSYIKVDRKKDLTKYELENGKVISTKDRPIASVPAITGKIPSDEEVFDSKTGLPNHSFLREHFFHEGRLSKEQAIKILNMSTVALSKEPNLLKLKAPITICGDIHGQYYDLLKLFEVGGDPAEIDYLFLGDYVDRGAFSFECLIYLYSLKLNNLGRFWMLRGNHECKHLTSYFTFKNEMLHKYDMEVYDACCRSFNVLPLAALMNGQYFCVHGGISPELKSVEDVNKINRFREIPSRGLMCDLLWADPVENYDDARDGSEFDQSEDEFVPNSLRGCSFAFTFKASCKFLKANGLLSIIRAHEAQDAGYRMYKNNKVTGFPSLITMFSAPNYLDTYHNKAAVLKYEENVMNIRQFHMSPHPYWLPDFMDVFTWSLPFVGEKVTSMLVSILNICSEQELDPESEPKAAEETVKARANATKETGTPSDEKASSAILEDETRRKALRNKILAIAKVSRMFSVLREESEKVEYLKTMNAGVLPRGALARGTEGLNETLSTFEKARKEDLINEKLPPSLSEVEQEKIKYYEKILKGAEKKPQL
Test: SPROX

B1: CPR1 (protein)
chain: not shown
modifications: cyclosporin A
Kd: 120 nM
